Data: US7811561 (dated 2010)

T1: cdk4 (UniProt P30285 2-303)
T1 sequence (looked up): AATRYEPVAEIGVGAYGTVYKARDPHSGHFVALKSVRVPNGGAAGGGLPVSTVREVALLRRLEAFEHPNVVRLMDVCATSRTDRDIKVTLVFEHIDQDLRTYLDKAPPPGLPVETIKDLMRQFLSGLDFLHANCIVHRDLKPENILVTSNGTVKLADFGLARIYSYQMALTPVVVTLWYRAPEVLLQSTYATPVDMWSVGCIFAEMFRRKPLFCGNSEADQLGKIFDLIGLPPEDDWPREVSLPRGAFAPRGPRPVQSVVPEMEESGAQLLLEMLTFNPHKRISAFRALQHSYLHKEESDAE

B1: cdk4 (protein)
chain: T1 sequence (looked up)
B2: cdk6 (protein)
chain: MEKDSLSRADQQYECVAEIGEGAYGKVFKARDLKNGGRFVALKRVRVQTSEEGMPLSTIREVAVLRHLETFEHPNVVRLFDVCTVSRTDRETKLTLVFEHVDQDLTTYLDKVPEPGVPTETIKDMMFQLLRGLDFLHSHRVVHRDLKPQNILVTSSGQIKLADFGLARIYSFQMALTSVVVTLWYRAPEVLLQSSYATPVDLWSVGCIFAEMFRRKPLFRGSSDVDQLGKILDIIGLPGEEDWPRDVALPRQAFHSKSAQPIEKFVTDIDELGKDLLLKCLTFNPAKRISAYGALNHPYFQDLERYKDNLNSHLPSNQSTSELNTA
B3: MCT-1 (Multiple Copies in T-cell malignancy) protein (other)
chain: MFKKFDEKENVSNCIQLKTSVIKGIKNQLIEQFPGIEPWLNQIMPKKDPVKIVRCHEHIEILTVNGELLFFRQREGPFYPTLRLLHKYPFILPHQQVDKGAIKFVLSGANIMCPGLTSPGAKLYPAAVDTIVAIMAEGKQHALCVGVMKMSAEDIEKVNKGIGIENIHYLNDGLWHMKTYK
notes: Expressed from the full length MCT-1 cDNA (pCMV-MCT-1) in stably transfected NIH 3T3 fibroblasts and tested in cell lysates

Legend:
[1] = molecular target: GST-RB (source of Rb protein substrate)
cyclin D1 = molecular target: T2, cyclin D1 (UniProt P25322 1-295); assay: co-immunoprecipitation and immunoblotting, NIH 3T3 cell lysates
T2 construct: Immunoprecipitated from NIH 3T3 lysates
Method: (§1) TBS was Tris-buffered saline containing 0.1% (w/v) sodium dodecyl sulfate. Samples were pre-cleared with Protein-G beads (GIBCO, Grand Island, N.Y.) and either normal rabbit or mouse serum (each at a 1:1000 dilution). Immunoprecipitation of cyclin D1 was carried out for 12 hours at 4° C. Immune complexes were precipitated using 1 to 5 micrograms of antibody and Protein-G agarose, and were then heated at 95° C. for 5 minutes in IP buffer, which comprised 93 millimolar Tris, 3% (w/v) SDS, 1.1 millimolar β-mercaptoethanol, 0.03% (w/v) bromophenol blue (BPB), and 15% (v/v) glycerol (SIGMA, Saint Louis, Mo.) at a pH of 6.8. The eluant was analyzed using a denaturing, reducing SDS-PAGE gel, and the contents of the gel were transferred to supported nitrocellulose filter by electroblotting. Filters were incubated with 1 to 5 micrograms of an antibody which binds specifically with one of the following: cyclin D1, cdk4, cdk6, PCNA, and p21. Horseradish peroxidase-linked anti-mouse or anti-rabbit whole antibody was used as a secondary antibody. Chemiluminescence was detected using an ECL™ kit (Amersham Life Science, Arlington Heights, Ill.) according to the manufacturer's instruction.
(§2) An increased level of cyclin D1 protein was detected by immunoprecipitation in lysates from NIH 3T3 cells transfected with PCMV-MCT-1, relative to asynchronously grown control cells which were not transfected or which were transfected with control vector. Because cdk4 and cdk6 associate with cyclin D1 during cell cycle progression, complex formation among these molecules was investigated using co-immunoprecipitation analysis. Increased subunit complex formation in NIH 3T3 cells constitutively expressing MCT-1, relative to cells which were not transfected with a vector encoding MCT-1. Physical interaction of PCNA with cyclin D1-cdk4/cdk6 complexes was also investigated. Co-immunoprecipitation of cyclin D1 and PCNA was detected at an increased level, relative to cells which were not transfected with a vector encoding MCT-1. Direct physical interaction was not detected between MCT-1 and any of proteins cyclin D1, cdk4, cdk6, and PCNA under these assay conditions.

cdk4 = molecular target: T1, cdk4; assay: as above
Method: as §1, §2

PCNA = PCNA (UniProt P17918 1-261); assay: as above
Method: as §1, §2

cdk6 = cdk6 (UniProt Q64261 1-326); assay: as above
Method: as §1, §2

PCNA, sequence (P17918 whole entry): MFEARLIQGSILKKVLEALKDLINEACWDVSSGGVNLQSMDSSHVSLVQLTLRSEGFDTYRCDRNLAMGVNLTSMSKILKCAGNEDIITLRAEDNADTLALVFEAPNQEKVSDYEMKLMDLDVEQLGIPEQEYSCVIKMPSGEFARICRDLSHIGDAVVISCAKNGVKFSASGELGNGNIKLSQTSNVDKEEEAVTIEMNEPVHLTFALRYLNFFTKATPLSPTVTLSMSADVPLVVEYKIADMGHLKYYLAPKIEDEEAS
T2 sequence (P25322 whole entry): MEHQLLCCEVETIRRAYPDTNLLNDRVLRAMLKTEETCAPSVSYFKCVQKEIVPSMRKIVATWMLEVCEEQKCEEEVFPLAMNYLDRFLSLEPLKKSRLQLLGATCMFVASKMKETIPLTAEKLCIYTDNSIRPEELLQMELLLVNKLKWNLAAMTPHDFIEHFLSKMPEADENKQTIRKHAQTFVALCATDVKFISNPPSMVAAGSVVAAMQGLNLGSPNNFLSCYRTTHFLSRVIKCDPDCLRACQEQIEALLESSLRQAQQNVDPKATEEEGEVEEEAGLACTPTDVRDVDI

Row | Binder | in vitro immune complex kinase assay (32P phosphorylation of Rb protein) [1] | binding result (cyclin D1) | binding result (cdk4) | binding result (PCNA) | binding result (cdk6)
1 | B1 | A markedly increased ability to phosphorylate Rb protein |  |  |  | 
2 | B2 | A markedly increased ability to phosphorylate Rb protein |  |  |  | 
3 | B3 |  | no binding | no binding | no binding | no binding
